Consider 38 sequences from the supplement of paper PMC7877785.

This data set in a line: self-splicing fitness, log relative to wild type (ln ratio); higher = more splicing; Tetrahymena group I intron in knt gene, E. coli kanamycin selection, DiMSum; sequences stand for … in CUCUCU…GGAGGGAAAAGUUAUCAGGCAUGCACCUGGUAGCUAGUCUUUAAACCAAUAGAUUGCAUCGGUUUAAAAGGCAAGACCGUCAAAUUGCGGGAAAGGGGUCAACAGCCGUUCAGUACCAAGUCUCAGGGGAAACUUUGAGAUGGCCUUGCAAAGGGUAUGGUAAUAAGCUGACGGACAUGGUCCUAACCACGCAGCCAAGUCCUAAGUCAACAGAUCUUCUGUUGAUAUGGAUGCAGUUCACAGACUAAAUGUCGGUCGGGGAAGAUGUAUUCUUCUCAUAAGAUAUAGUCGGACCUCUCCUUAAUGGGAGCUAGCGGAUGAAGUGAUGCAACACUGGAGCCGCUGGGAACUAAUUUGUAUGCGAAAGUAUAUUGAUUAGUUUUGGAGUACUCGUGGUCG
The essentials:
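Fitness was computed with DiMSum as the error-weighted combination of replicate fold changes, kanamycin versus none, each normalised to wild type. The library randomised all eight intron nucleotides of the P1ex region, with the intron placed in the knt kanamycin-resistance gene on pET-22b(+) in E. coli BL21(DE3). Six replicate transformations were grown overnight at 37°C or 30°C on LB agar with or without 25 μg/mL kanamycin, plus 100 μg/mL carbenicillin, 50 μM IPTG and 0.2% rhamnose. Pooled colonies were amplicon-sequenced on an Illumina HiSeq 2500.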

± gives the uncertainty stated by the source.

CAUCAGCAAUAUUACGCGUU: the “self-splicing fitness (ln)” value runs as follows: (30 °C) -2.17 ± 0.1; (37 °C) -1.54 ± 0.13. On to CCUAAGCAAUAUUACGCCAA, for which the “self-splicing fitness (ln)” value was -2.22 ± 0.24 (30 °C) and -3.27 ± 0.46 (37 °C). For GCCAAGCAAUAUUACGGAAU the same measures were -1.8 ± 0.15 and -0.618 ± 0.15.

On to AGUGAGCAAUAUUACGUCUA, for which the “self-splicing fitness (ln)” value reads like this: (30 °C) -2.45 ± 0.27; (37 °C) -1.41 ± 0.2. For CUGCAGCAAUAUUACGUCUU the same measures were -3.15 ± 0.11 and -2.64 ± 0.12. As to UGGGAGCAAUAUUACGCAAG, under “30 °C”, the “self-splicing fitness (ln)” value was -2.15 ± 0.36. Take GUUCAGCAAUAUUACGGCAA: the “self-splicing fitness (ln)” value is -0.436 ± 0.078 (30 °C) and -0.458 ± 0.1 (37 °C). Consider CCUAAGCAAUAUUACGCAGA, for which, where the note is “37 °C”, the “self-splicing fitness (ln)” value was -2.34 ± 0.37.

For CCCUAGCAAUAUUACGUUGU, the “self-splicing fitness (ln)” value is -3.84 ± 0.16 (30 °C) and -3.27 ± 0.16 (37 °C).

With GGCUAGCAAUAUUACGUUUU, the “self-splicing fitness (ln)” value was -0.476 ± 0.084 (30 °C) and -0.0101 ± 0.093 (37 °C).

With GCCUAGCAAUAUUACGCACC, the “self-splicing fitness (ln)” value was -0.962 ± 0.26 (30 °C) and -0.41 ± 0.21 (37 °C). For UUACAGCAAUAUUACGACGC the same measures were 0.421 ± 0.26 and -1.47 ± 0.36. GUGUAGCAAUAUUACGGGGU: the “self-splicing fitness (ln)” value (30 °C) is -3.62 ± 0.26 and the “self-splicing fitness (ln)” value (37 °C) is -2.63 ± 0.34. For AACCAGCAAUAUUACGAGCU, the “self-splicing fitness (ln)” value by setting is: (30 °C) -2.52 ± 0.087; (37 °C) -1.82 ± 0.1. Take CCUGAGCAAUAUUACGAAUA: the “self-splicing fitness (ln)” value is, setting by setting: (30 °C) -2.69 ± 0.38; (37 °C) -1.35 ± 0.21. For CGAAAGCAAUAUUACGAGUG the same measures were -0.203 ± 0.049 and 0.0139 ± 0.065.

Take CAGUAGCAAUAUUACGCGCA: the “self-splicing fitness (ln)” value (30 °C) was -1.08 ± 0.074 and the “self-splicing fitness (ln)” value (37 °C) is -0.617 ± 0.085. Turning to AGCGAGCAAUAUUACGGUAG, the “self-splicing fitness (ln)” value (37 °C) is -1.73 ± 0.22. As to UCUCAGCAAUAUUACGAAGG, the “self-splicing fitness (ln)” value (30 °C) is -2.79 ± 0.19 and the “self-splicing fitness (ln)” value (37 °C) is -0.314 ± 0.14. CCAGAGCAAUAUUACGGGCC: the “self-splicing fitness (ln)” value runs as follows: (30 °C) -2.83 ± 0.22; (37 °C) -2.55 ± 0.26. Take AAAAAGCAAUAUUACGCCCC: the “self-splicing fitness (ln)” value runs as follows: (30 °C) -0.356 ± 0.25; (37 °C) 0.308 ± 0.34. For AGAGAGCAAUAUUACGAGUU the same measures were -4.21 ± 0.3 and -2.41 ± 0.2.

For CCUAAGCAAUAUUACGAACU, the “self-splicing fitness (ln)” value reads like this: (30 °C) -3.44 ± 0.48; (37 °C) -1.99 ± 0.22. In the same order, the values of GUGAAGCAAUAUUACGAGGG are -3.74 ± 0.25 and -1.29 ± 0.13.

As for GCCGAGCAAUAUUACGAAAC, the “self-splicing fitness (ln)” value is -2.15 ± 0.22 (30 °C) and -1.13 ± 0.17 (37 °C). In the same order, the values of GCCAAGCAAUAUUACGUACU are -1.15 ± 0.098 and -0.739 ± 0.12. For ACGUAGCAAUAUUACGUGCG the same measures were -2.19 ± 0.1 and -1.17 ± 0.11. In the case of AAUAAGCAAUAUUACGAAGG, the “self-splicing fitness (ln)” value was -3.39 ± 0.48 (30 °C) and -2.04 ± 0.39 (37 °C).

For the sequence CUCGAGCAAUAUUACGUAUG, the “self-splicing fitness (ln)” value runs as follows: (30 °C) -2.93 ± 0.14; (37 °C) -1.2 ± 0.13. As for CCCGAGCAAUAUUACGCCGA, the “self-splicing fitness (ln)” value (30 °C) was -3.02 ± 0.39 and the “self-splicing fitness (ln)” value (37 °C) was -2.14 ± 0.36.

As for CCCCAGCAAUAUUACGCAUU, the “self-splicing fitness (ln)” value is -4.14 ± 0.17 (30 °C) and -2.81 ± 0.18 (37 °C).

On to GGCUAGCAAUAUUACGCACU, for which the “self-splicing fitness (ln)” value was -0.665 ± 0.1 (30 °C) and -0.592 ± 0.1 (37 °C). Regarding AUCGAGCAAUAUUACGAACG, the “self-splicing fitness (ln)” value reads like this: (30 °C) -2.49 ± 0.22; (37 °C) -1.65 ± 0.33. In the same order, the values of GUAAAGCAAUAUUACGCUCU are -2.11 ± 0.19 and -0.206 ± 0.24.

As to AUAAAGCAAUAUUACGGUCA, the “self-splicing fitness (ln)” value reads like this: (30 °C) 0.0241 ± 0.071; (37 °C) 0.459 ± 0.1. On to UGCUAGCAAUAUUACGGUCC, for which the “self-splicing fitness (ln)” value by setting is: (30 °C) -2.01 ± 0.19; (37 °C) 0.11 ± 0.21.

As to GUCAAGCAAUAUUACGCAUC, the “self-splicing fitness (ln)” value is -3.22 ± 0.13 (30 °C) and -1.74 ± 0.18 (37 °C). In the same order, the values of UCCAAGCAAUAUUACGGCGG are -1.42 ± 0.079 and -0.773 ± 0.092.
